Data as given in patent US9051358B2, “Nonnatural collagen-like protein and use thereof” (ZHEJIANG UNIVERSITY, priority 2009, dated 2015).

B1: rGLK1164/G-CSF: fusion protein of GLK1164 and hG-CSF (SEQ ID NO: 6) (protein)
chain: GPPGEQGKPGNQGEPGNPGSPGQPGNPGQPGSPGNPGQPGNEGPQGSQGNPGQPGEPGSNGQPGQPGQNGKNGQPGSPGSQGSPGNQGSPGNQGQPGNKGEQGKPGNQGPAGEQGKPGNQGEPGNPGSPGQPGNPGQPGSPGNPGQPGNEGPQGSQGNPGQPGEPGSNGQPGQPGQNGKNGQPGSPGSQGSPGNQGSPGNQGQPGNKGEQGKPGNQGPAGEQGKPGNQGEPGNPGSPGQPGNPGQPGSPGNPGQPGNEGPQGSQGNPGQPGEPGSNGQPGQPGQNGKNGQPGSPGSQGSPGNQGSPGNQGQPGNKGEQGKPGNQGPAGEQGKPGNQGEPGNPGSPGQPGNPGQPGSPGNPGQPGNEGPQGSQGNPGQPGEPGSNGQPGQPGQNGKNGQPGSPGSQGSPGNQGSPGNQGQPGNKGEQGKPGNQGPAGGSGGTPLGPASSLPQSFLLKCLEQVRKIQGDGAALQEKLCATYKLCHPEELVLLGHSLGIPWAPLSSCPSQALQLAGCLSQLHSGLFLYQGLLQALEGISPELGPTLDTLQLDVADFATTIWQQMEELGMAPALQPTQGAMPAFASAFQRRAGGVLVASHLQSFLEVSYRVLRHLAQP
modifications: rGLK116 tetramer/G-CSF
B2: rGLK420/G-CSF: fusion protein of GLK420 and G-CSF (SEQ ID NO: 10) (protein)
chain: GPPGEDGDKGEIGEPGQKGSKGDKGEQGPPGPTGPQGPIGQPGPSGADGEPGPRGQQGLFGQKGDEGPRGFPGPPGPVGLQGLPGPPGEKGETGDVGQMGPPGPPGPRGPSGAPGADGPQGPPGGIGNPGAVGEKGEPGEAGEPGLPGEGGPPGPKGERGEKGESGPSGAAGPPGPKGPPGDDGPKGSPGPVGFPGDPGPPGEPGPAGQDGPPGDKGDDGEPGQTGSPGPTGEPGPSGPPGKRGPPGPAGPEGRQGEKGAKGEAGLEGPPGKTGPIGPQGAPGKPGPDGLRGIPGPVGEQGLPGSPGPDGPPGPMGPPGLPGLKGDSGPKGEKGHPGLIGLIGPPGEQGEKGDRGLPGPQGSSGPKGEQGITGPSGPIGPPGPPGLPGPPGPKGAKGSSGPTGPKGEAGHPGPPGPPGPPTPLGPASSLPQSFLLKCLEQVRKIQGDGAALQEKLCATYKLCHPEELVLLGHSLGIPWAPLSSCPSQALQLAGCLSQLHSGLFLYQGLLQALEGISPELGPTLDTLQLDVADFATTIWQQMEELGMAPALQPTQGAMPAFASAFQRRAGGVLVASHLQSFLEVSYRVLRHLAQP
modifications: GLK420/G-CSF, fusion protein
B3: rhG-CSF: rhG-CSF (Filgrastim, Amgen, USA) (protein, UniProt P09919 31-207, looked up)
Granulocyte …: TPLGPASSLPQSFLLKCLEQVRKIQGDGAALQEKLVSECATYKLCHPEELVLLGHSLGIPWAPLSSCPSQALQLAGCLSQLHSGLFLYQGLLQALEGISPELGPTLDTLQLDVADFATTIWQQMEELGMAPALQPTQGAMPAFASAFQRRAGGVLVASHLQSFLEVSYRVLRHLAQP
modifications: filgrastim, N-terminal Met

Experiments:
[1] = tested on: G-CSF-dependent cell line NFS60; test: In vitro bioactivity in G-CSF-dependent cell line NFS60 by MTT assay; type: cell-based; details: for Bioactivity (IU/mg): Table 4; for Relative activity (in molar basis)(%): relative to G-CSF
Description: In vitro bioactivity of the rGLK1164/G-CSF fusion protein was measured in G-CSF-dependent cell line NFS60 by MTT assay (Chinese Pharmacopoeia, 2005 edition, three sections).

[2] = In vitro stability, shock at 40° C., SEC-HPLC analysis; type: physicochemical; details: for Purity (%) (SEC-HPLC analysis): 1 mg/ml in 20 mM PB pH6.0, 40° C.; for protein content after incubation (%): 40° C.; for in vitro stability (aggregates, total protein content): shock 48 hours at 40° C.
Description: Reference rhG-CSF and rGLK1164/G-CSF were dissolved in 20 mM PB, pH6.0 to the protein concentration of 1 mg/ml. samples were sterile filtered and distributed to penicillin bottles. […]

white blood cells = test: Pharmacodynamic study, number of white blood cells in SD rats; type: in vivo
Text: (§1) The pharmacokinetic parameters and pharmacodynamic properties of rhG-CSF (Filgrastim, Amgen, USA), rHSA/G-CSF (prepared according to U.S. Pat. No. 5,876,969), rGLK1164/G-CSF and rGLK1164 in SD rats were compared.
(§2) Adult SPF SD rats (approximately 300-350 g) from the Center of Experimental Animals of Chinese Academy of Sciences in Shanghai were divided into 8 groups and administered according to Table 3. Blood samples were collected from the caudal veins of rats. The number of white blood cells were counted, and serum was saved at −20° C. after separated by centrifugation (3000rpm for 5 minutes).

[3] = Immunogenicity study in mice, serum antibody detection by ELISA; type: in vivo, Balc/C mice; details: sc once a week, 2.5 nmol
Description: Balc/C mice (n=12) with a average weight of about 25 g were evenly divided into 4 groups. 2.5 nmol rGLK1164, 2.5 nmol rGLK1164/G-CSF, and the same volume of saline were administered to a corresponding group respectively by subcutaneous injection once a week. Serum samples were collected in week 4 and week 9(a week after the eighth immunization) and were saved separately at −70° C.
rGLK1164 or G-CSF was diluted with 0.2M carbonate buffer (pH9.6) to 1 μg/ml. Each well of the ELISA microplate was filled with 100 μl dilution and coated overnight at 4° C., and then the wells were washed with PBST for 3 times(5 minutes each time). The washed wells were sealed by 5% nonfat dry milk for 1 hour, and then washed three times with PBST (5 minutes each time). The preserved serum of each group was added to the well at a rate of 1:50,1:200,1:800, and then the microplate was incubated at 37° C. for 1 hour, and for one increased hour after the secondary antibody, HRP-conjugated goat anti-mouse antibody was added. After the microplate was shook to dry and washed by PBST, it was colored with TMB-HCL and detected under the illumination of 450 nm. Meanwhile, 200 ng/ml of rabbit anti-human G-CSF antibody was used as a positive control.

[4] = Pharmacokinetics of G-CSF proteins in SD rats (ELISA); type: in vivo; details: for Half-life: SD rats; for detectability in blood after subcutaneous injection: blood concentration-time curve
Text: as §1, §2
The plasma concentration detection of rhG-CSF, rGLK1164/G-CSF and rHSA/G-CSF was carried out using ELISA (for the specific operations, refer to the operating manual of Human G-CSF DuoSet kit Human G-CSF ELISA Construction Kit (ANTIGENIX)). The MicroCal Origin software was used to draw standard curve according to four-parameter logistic fitting method, and calculate related statistical parameters by regression analysis. The 3P87 software was used to calculate the PK parameters.
GLK/G-CSFs with different structures were prepared in a similar way, and their activity, half-life in SD rats and other relevant parameters were compared.

Molecule | in vitro activity [1] | Bioactivity (IU/mg) [1] | Relative activity (in molar basis)(%) [1] | Purity (%) (SEC-HPLC analysis) ([2]; 0 h) | protein content after incubation (%) ([2]; 0 h) | Purity (%) (SEC-HPLC analysis) ([2]; 24 h) | protein content after incubation (%) ([2]; 24 h) | Purity (%) (SEC-HPLC analysis) ([2]; 48 h) | protein content after incubation (%) ([2]; 48 h) | in vitro stability (aggregates, total protein content) [2] | number of white blood cells (white blood cells; 48 hours after an injection) | extent and duration of white blood cell increase versus rHSA/G-CSF (white blood cells; same dosage) | serum anti-G-CSF antibody ([3]; plate coated by G-CSF) | serum anti-rGLK1164 antibody ([3]; plate coated by rGLK1164) | Half-life [4] | terminal half-life ([4]; administered subcutaneously in rats) | detectability in blood after subcutaneous injection [4]
B1 | about 3.3×10^7 IU/mg | 0.33 × 10^8 IU/mg | 146% | 99.5% | 100% | 98.7% | 97.8% | 97.5% | 96.7% | changed little | increased significantly | no significant difference | anti-G-CSF antibody is produced | no anti-rGLK1164 antibody produced | >7 h | 10 h | could still be detected at 72 hours
B2 |  | 0.28 × 10^8 IU/mg | 129% |  |  |  |  |  |  |  |  |  |  |  | >7 h |  | 
B3 |  | 0.7 × 10^8 IU/mg | 100% | 99.8% | 100% | 94.3% | 91.2% | 85.2% | 68.9% | a large number of polymeric aggregates were formed and the total protein content was also decreased significantly |  |  |  |  | 1.7 h |  | couldn't be detected 24 hours later
